Assay results taken from patent US20240400717A1, “Antibody Binding to CHI3L1 for Treating Cancer” (National Cheng Kung University, priority 2021, published 2024).

T1: CHI3L2 (Homo sapiens, UniProt Q15782)
T1 sequence (Q15782 27-390): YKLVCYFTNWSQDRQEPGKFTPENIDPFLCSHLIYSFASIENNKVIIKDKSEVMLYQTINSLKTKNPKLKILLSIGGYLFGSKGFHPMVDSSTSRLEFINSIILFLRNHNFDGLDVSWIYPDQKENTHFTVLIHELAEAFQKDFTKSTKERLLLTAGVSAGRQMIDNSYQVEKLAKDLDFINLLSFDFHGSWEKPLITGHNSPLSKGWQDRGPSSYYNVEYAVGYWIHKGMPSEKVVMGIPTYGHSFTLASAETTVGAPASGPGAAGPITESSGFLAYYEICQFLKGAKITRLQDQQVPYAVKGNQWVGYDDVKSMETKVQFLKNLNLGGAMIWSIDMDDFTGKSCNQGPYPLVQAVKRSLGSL


Key:
[1] = test system: MiaPaCa-2, SW480 and A549 cells; assay: Wound healing assay with rCHI3L1; type: cell-based, human; settings: MiaPaCa-2, SW480, A549; 16 hours
Protocol: Since AKT regulates cell migration, we further performed wound healing assay to examine the anti-migratory effect of mAbs on pancreatic (MiaPaCa-2), colorectal (SW480), and lung (A549) cells. We observed that after 16 hours, the wound closure area was increased compared to that in control groups upon rCHI3L1 treatment. […] Taken together, our fully human monoclonal CHI3L1 neutralizing antibody clones R4-4, R4-54, 293R3-2, and 293R3-4 blocked the CHI3L1 induced signaling and cell behaviors of tumor cells. The data was presented as mean±S.D. (n=3 per group). P values were determined by one-way ANOVA. * P<0.05, ** P<0.01, *** P<0.001, **** P<0.0001.

HCT116 and A549 cells = assay: Immunoblot of rCHI3L1-induced AKT and ERK phosphorylation, HCT116 and A549; type: cell-based, human; settings: HCT116 and A549, time course
Protocol: The involvement of CHI3L1 in intracellular signaling pathways has been reported. For example, CHI3L1 binding to CD44 activates protein kinase B (AKT) and extracellular signal-regulated kinase (ERK) signaling to promote cancer progression (Chen, Jiang et al. 2021). Thus, we tested whether mAb clones R4-4, R4-54, 293R3-2, and 293R3-4 could attenuate AKT and ERK phosphorylation in human pancreatic (PANC1), colorectal (HCT116), and lung (A549) cancer cell lines. PANC1 cells were treated with rCHI3L1 (100 ng/ml) only or rCHI3L1 with different dose of mAbs as indicated for 20 minutes.

MiaPaCa cells = assay: MiaPaCa orthotopic NOD-SCID mice model; settings: for level of CHI3L1 in intratumoral region and plasma: end of experiment; for infiltrated macrophages in tumor sections (F4/80+, CD206+): immunofluorescence; for angiogenesis indicated by CD31 expression / tumor size: mAb 5 mg/kg i.v., gemcitabine 50 mg/kg i.p.; for tumor size: Day 7, 14, 21, 28, sacrificed day 34; for fibrosis indicated by α-SMA: comparing to IgG control and gemcitabine groups
Protocol: Specifically, experimental design of tumor growth inhibition in vivo. MiaPaCa cells (5×10^6) were injected into pancreas of NOD-SCID mice at Day 0. […] Mice were sacrificed on day 34. […] Since fibrosis and angiogenesis are two major issues during tumor progression, we compared the fibrosis and angiogenesis level within each groups.

SW480 and SW620 cells = assay: rCHI3L1-induced foci formation; type: cell-based, human
[2] = target: recombinant CHI3L1 protein (Homo sapiens, UniProt P36222); assay: ELISA binding specificity, CHI3L1; settings: mAbs 1 μg/ml; coated protein 2.5 μg/ml to 0 μg/ml
Protocol: (§1) Four selected clones of mAbs including R4-4, R4-54, 293R3-2, and 293R3-4 were further tested for blocking effect on human colorectal (HCT116, SW480, and SW620) and pancreatic cancer cell lines (PANC1 and MiaPaCa-2). […] P values were determined by one-way ANOVA. * P<0.05, ** P<0.01, *** P<0.001, **** P<0.0001. For binding specificity examination, we further coated different concentration of recombinant CHI3L1 protein, and two other major proteins in chitinase family including human chitotriosidase-1 (CHIT1) and CHI3L2 from 2.5 μg/ml to 0 μg/ml, on 96-well plate.

CHI3L2 = target: T1, CHI3L2; assay: ELISA binding specificity, CHI3L2; settings: mAbs 1 μg/ml; coated protein 2.5 μg/ml to 0 μg/ml
Protocol: as §1

[3] = target: CHI3L1-receptor(s) interaction on HCT116, SW480, SW620, PANC1 and MiaPaCa-2 (Homo sapiens, UniProt P36222); assay: Flow cytometry blockage of rCHI3L1-receptor(s) interaction, colorectal and pancreatic cancer cell lines; type: cell-based; settings: HCT116, SW480, SW620, PANC1, MiaPaCa-2, flow cytometry
Protocol: CHI3L1 have been reported to interact with several receptors on cancer cells, and trigger downstream signaling for cancer cell growth, proliferation and anti-apoptosis (Kamba et al. 2013; Lee et al. 2016). […] His-tagged rCHI3L1 was added for CHI3L1-receptor(s) interaction. Anti-His antibody AHAb with fluorescent F recognized CHI3L1-receptor(s) R complex for detection (left, FIG. 4A). Once fully human mAbs (nCHI3L1 Ab) blocked the CHI3L1-receptor(s) interaction, the fluorescent F signals were decreased (right, FIG. 4A) and cell signaling CS was blockade.
as §1

PANC1 and H460 cells = assay: CCK-8 cell viability assay with rCHI3L1; type: cell-based, human; settings: PANC1 and H460, rCHI3L1 with mAbs at two doses
Protocol: PI3K/AKT/mTOR signaling pathway is important in regulating cell proliferation, survival and migration (Xu et al. 2020). Therefore, we investigated the effect of four selected mAbs on cancer cell behaviors. Human pancreatic (PANC1) and large cell cancer of the lung (H460) cells were treated with rCHI3L1 only or together with mAbs at two doses, and then subjected to cell counting kit 8 (CCK-8) cell viability assay. […] P values were determined by one-way ANOVA. * P<0.05, ** P<0.01, *** P<0.001, **** P<0.0001.

Chain of recombinant CHI3L1 protein (P36222 22-383): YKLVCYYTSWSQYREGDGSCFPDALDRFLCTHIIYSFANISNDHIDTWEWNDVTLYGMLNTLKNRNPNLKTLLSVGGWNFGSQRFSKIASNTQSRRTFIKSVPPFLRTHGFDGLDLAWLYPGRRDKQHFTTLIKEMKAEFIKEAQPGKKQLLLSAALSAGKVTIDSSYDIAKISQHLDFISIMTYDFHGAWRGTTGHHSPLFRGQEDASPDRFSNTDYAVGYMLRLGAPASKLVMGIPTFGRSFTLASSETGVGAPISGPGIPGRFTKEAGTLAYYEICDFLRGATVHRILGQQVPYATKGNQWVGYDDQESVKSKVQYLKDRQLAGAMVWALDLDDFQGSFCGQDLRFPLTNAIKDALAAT
Chain of CHI3L1-receptor(s) interaction on HCT116, SW480, SW620, PANC1 and MiaPaCa-2 (P36222 22-383): as above

binding specificity: recognition of CHI3L1 [2]	binding specificity: recognition of CHI3L2 (CHI3L2)	rCHI3L1 binding to cells [3]	Molecule	cell migration ability induced by rCHI3L1 (wound closure area) [1]	p-AKT and p-ERK levels induced by rCHI3L1 (HCT116 and A549 cells)	level of CHI3L1 in intratumoral region and plasma (MiaPaCa cells)	infiltrated macrophages in tumor sections (F4/80+, CD206+) (MiaPaCa cells; 5 mg/kg i.v.)	angiogenesis indicated by CD31 expression (MiaPaCa cells)	tumor size (MiaPaCa cells)	number of foci (SW480 and SW620 cells)	cell viability (CCK-8) (PANC1 and H460 cells)	fibrosis indicated by α-SMA (MiaPaCa cells)	spleen metastasis tumor nodules (MiaPaCa cells; 5 mg/kg i.v.)
specifically recognized CHI3L1	no other chitinase proteins	significantly reduced	293R3-2: fully human anti-CHI3L1 IgG1 mAb, Table 1 No. 2; heavy chain SEQ ID NO: 65, light chain SEQ ID NO: 66 (antibody, listed as Homo sapiens) VH: QVQLQESGPGLVEPSGTLSLTCAVSGGSISSSNWWSWVRQHPGKGLEWIGEIYHSGSTNYNPSLRSRVTISVDKSKNQFSLELSSVTAADTAVYYCAGDQRMEDDAFDIWGQGTMVTVSS light: QSALTQPASVSGSPGQSITISCTGTSSDVGGYNYVSWYQQHPGKAPKLMIYDVSNRPSGVSNRFSGSKSGNTASLTISGLQAEDEADYYCSSYTSSSTLYVFGTGTKVTVLGQPKANPTVTLFPPSSEELQANKATLVCLISDFYPGAVTVAWKADGSPVKAGVETTKPSKQSNNKYAASSYLSLTPEQWKSHRSYSCQVTHEGSTVEKTVAPTECS	significantly reduced cell migration ability	Inhibition of p-AKT and p-ERK	lower than IgG control group	more macrophages other than M2 phenotype	decreased in every treatment groups	smaller than IgG control group	decreased in a dose-dependent manner	reduced the viability		
specifically recognized CHI3L1	no other chitinase proteins	significantly reduced	R4-54: fully human anti-CHI3L1 IgG1 mAb, Table 1 No. 34; heavy chain SEQ ID NO: 33, light chain SEQ ID NO: 34 (antibody, listed as Homo sapiens) VH: QVQLVESGGGVVQPGRSLRLSCAASGFTFSSYGMHWVRQAPGKGLEWVAVISYDGSDKDYADSVKGRFTISRDNSKNTLFLQMNSLRAEDTAVYYCARDDYDSTYYFDNWGQGTTVTVSS light: SYELTQPPSVSVSPGQTASITCSGDILADQYASWYQQKPGQSPVLVIYHDTKRPSGVPERFSGSTSGNTATLTISGTQAMDEAAYYCQAWDINTAWVFGGGTQLTVLGQPKAAPSVTLFPPSSEELQANKATLVCLISDFYPGAVTVAWKADSSPVKAGVETTTPSKQSNNKYAASSYLSLTPEQWKSHRSYSCQVTHEGSTVEKTVAPTECS	significantly reduced cell migration ability	Inhibition of p-AKT and p-ERK	lower than IgG control group	more macrophages other than M2 phenotype	decreased in every treatment groups	smaller than IgG control group	decreased in a dose-dependent manner	reduced the viability	obviously decrease	
specifically recognized CHI3L1	no other chitinase proteins	significantly reduced	R4-4: fully human anti-CHI3L1 IgG1 mAb, Table 1 No. 9; heavy chain SEQ ID NO: 9, light chain SEQ ID NO: 10 (antibody, listed as Homo sapiens) VH: EVQLLESGGGLLQPGGSLRLSCAASGLTFRNYAMTWVRQAPGKGLEWVSTISGNGDETFYADSVKGHFTISRDNSKDTVYLQMNSLRAEDTAVYYCAKGGHYSFFDSWGQGSPVTVSS light: NFMLTQPHSVSESPGKTVTISCTRSSGSIASNYVQWYQQRPGSSPTTVIYEDNQRPSGVPDRFSGSIDSSSNSASLTISGLKTEDEADYYCQSYDSSNYVFGTGTKVTVLGQPKANPTVTLFPPSSEELQANKATLVCLISDFYPGAVTVAWKADGSPVKAGVETTKPSKQSNNKYAASSYLSLTPEQWKSHRSYSCQVTHEGSTVEKTVAPAECS	significantly reduced cell migration ability	Inhibition of p-AKT and p-ERK	lower than IgG control group	more macrophages other than M2 phenotype	decreased in every treatment groups	smaller than IgG control group	decreased in a dose-dependent manner	reduced the viability	obviously decrease	tumor nodules were obviously smaller
specifically recognized CHI3L1	no other chitinase proteins	significantly reduced	293R3-4: fully human anti-CHI3L1 IgG1 mAb, Table 1 No. 4; heavy chain SEQ ID NO: 73, light chain SEQ ID NO: 74 (antibody, listed as Homo sapiens) VH: EVQLVQSGAEVKKPGATVKISCKVSGYSFTDYYIHWVQQAPGKGLEWMGFVDPENGETIYAEKFQGRVTITADTSTDTAYMELSSLRSDDTAVYYCATDRDYDDSSGNAFDIWGQGTMVTVSS light: SYELTQPPSVSVSTGQTATITCSGDILGDEYAFWYQQKAGQSPVLVIYLDTRRPSGIPERFSGSNSGDTATLTISETQPVDEAVYFCQGWDSSTALYVFGTGTKVTVLGQPKANPTVTLFPPSSEELQANKATLVCLISDFYPGAVTVAWKADGSPVKAGVETTKPSKQSNNKYAASSYLSLTPEQWKSHRSYSCQVTHEGSTVEKTVAPTECS	significantly reduced cell migration ability	Inhibition of p-AKT and p-ERK	lower than IgG control group	more macrophages other than M2 phenotype	decreased in every treatment groups	smaller than IgG control group	decreased in a dose-dependent manner	reduced the viability		
